Experimental findings from the FLAb antibody collection (doi:10.7554/elife.23156) are described below.

First the molecules themselves.
B1: scFv; the commonest letter at each place (parent)
chain 1: EVKLDETGGGLVQPGRPMKLSCVASGFTFSDYWMNWVRQSPEKGLEWVAQIRNKPYNYETYYSDSVKGRFTISRDDSKSSVYLQMNNLRVEDMGIYYCTGSYYGMDYWGQGTSVTVS
chain 2: DVVMTQTPLSLPVSLGDQASISCRSSQSLVHSNGNTYLRWYLQKPGQSPKVLIYKVSNRFSGVPDRFSGSGSGTDFTLKISRVEAEDLGVYFCSQSTHVPWTFGGGTKLEIK

Variants of B1 are the subject of the data set “fluorescein”. Briefly: Kd (Tite-Seq). To be noted: with fluorescein; format: scFv 4-4-20, heavy + light.
In data set [1] the parent is B1. Briefly: yeast surface expression (ratio to wild type); higher = more expressed. The following applies: format: scFv 4-4-20, heavy + light.

Where only a bound is given, the exact number is not on record here.

As to chain 1 Y102V G104N, the Kd (as a rule, the free concentration of one partner at which half of the binding sites on the other are occupied at equilibrium, for simple one-to-one binding) with fluorescein is not below 10 µM. Further, the yeast surface expression in data set [1] is 0.817.
Take chain 1 Y102V G104K: the Kd in the data set with fluorescein was not below 10 µM. Moreover, in data set [1], the yeast surface expression came to 0.494.
Regarding chain 1 Y103C G104H, the Kd in the data set with fluorescein turned out to be 2.01 µM. Also, the yeast surface expression in data set [1] was 0.403.
As for chain 1 Y103C G104C, in the data set with fluorescein, the Kd was not below 10 µM. The yeast surface expression in data set [1] is 0.223.
As to chain 1 Y102I Y103W, the Kd in the data set with fluorescein came out at 0.0015 µM. Further, in data set [1], the yeast surface expression turned out to be 1.15.
The matching figures for chain 1 Y102S W108T: not above 0.000316 µM and 0.599.
As for chain 1 Y102S Y103S, the Kd with fluorescein stood at 0.021 µM. In addition, the yeast surface expression in data set [1] turned out to be 1.1.
The matching figures for chain 1 Y102S Y103C: 0.0125 µM and 0.707.
Turning to chain 1 Y103E D106P, in the data set with fluorescein, the Kd was not below 10 µM. Moreover, in data set [1], the yeast surface expression was 0.413.
Regarding chain 1 Y102G G109K, the Kd with fluorescein was not below 10 µM. Further, the yeast surface expression in data set [1] amounted to 0.336.
chain 1 Y102L W108Q: the Kd with fluorescein was not below 10 µM. Also, in data set [1], the yeast surface expression came out at 0.328.
As for chain 1 Y102R G109L, in the data set with fluorescein, the dissociation constant (Kd) is not below 10 µM. In addition, the yeast surface expression in data set [1] was 0.279.
chain 1 Y103D M105N: the Kd with fluorescein was not below 10 µM. For the same variant, the yeast surface expression in data set [1] amounted to 1.19.
Regarding chain 1 Y103D M105Y, in the data set with fluorescein, the Kd was not below 10 µM. Moreover, the yeast surface expression in data set [1] was found to be 1.03.
For chain 1 Y103G W108F the same measures were 0.00194 µM and 1.06.
The matching figures for chain 1 Y103H D106H: not below 10 µM and 0.611.
For chain 1 Y102V M105Q the same measures were 1.63 µM and 0.736.
chain 1 Y102V M105N: the Kd with fluorescein came to 0.522 µM. In addition, the yeast surface expression in data set [1] stood at 1.01.
For chain 1 Y102M W108K the same measures were not below 10 µM and 0.392.
For chain 1 Y102K W108S the same measures were not below 10 µM and 0.534.
The matching figures for chain 1 Y103G Y107W: 0.0221 µM and 1.21.
Regarding chain 1 Y102V D106N, in the data set with fluorescein, the Kd was 0.00215 µM. For the same variant, in data set [1], the yeast surface expression was determined as 0.889.
The matching figures for chain 1 Y102V D106I: not below 10 µM and 0.421.
The matching figures for chain 1 Y103K D106M: not below 10 µM and 0.716.
For the variant chain 1 Y103I W108S, the equilibrium dissociation constant (Kd) in the data set with fluorescein is not below 10 µM. Further, the yeast surface expression in data set [1] was 0.397.
For chain 1 Y103I W108C, the Kd with fluorescein was determined as 3.74 µM. For the same variant, the yeast surface expression in data set [1] was 0.359.
The matching figures for chain 1 Y102Q W108Q: not below 10 µM and 0.508.
Regarding chain 1 Y102N D106E, the Kd with fluorescein was not below 10 µM. The yeast surface expression in data set [1] was found to be 1.27.
The matching figures for chain 1 Y103D W108H: 3.74 µM and 0.708.
With chain 1 Y103D W108R, the dissociation constant (Kd) with fluorescein was not below 10 µM. Besides, the yeast surface expression in data set [1] worked out at 0.524.
For chain 1 Y103I M105E the same measures were not below 10 µM and 0.733.
Turning to chain 1 Y103I M105W, in the data set with fluorescein, the Kd was found to be 0.0146 µM. Moreover, the yeast surface expression in data set [1] came to 0.528.
For chain 1 Y102M Y103T the same measures were not below 10 µM and 0.766.
The matching figures for chain 1 Y102M Y103E: not below 10 µM and 1.26.
chain 1 Y102M G104M: in the data set with fluorescein, the Kd was not below 10 µM. The yeast surface expression in data set [1] was determined as 0.472.
As to chain 1 Y102V W108A, in the data set with fluorescein, the Kd came to 0.021 µM. The yeast surface expression in data set [1] stood at 0.315.
Consider chain 1 Y102V W108Y, for which, in the data set with fluorescein, the Kd is 0.000504 µM. The yeast surface expression in data set [1] stood at 0.855.
For chain 1 Y102V W108G the same measures were not below 10 µM and 0.298.
For chain 1 Y102L Y107S the same measures were 5.96 µM and 1.78.
The matching figures for chain 1 Y102V M105H G109V: not below 10 µM and 0.276.
As to chain 1 Y103F Y107V, the Kd with fluorescein came out at 0.0146 µM. For the same variant, in data set [1], the yeast surface expression is 0.817.
Regarding chain 1 Y102M M105K D106W, in the data set with fluorescein, the Kd was not below 10 µM. Besides, the yeast surface expression in data set [1] is 0.527.
The matching figures for chain 1 Y102W G104H G109I: not below 10 µM and 0.0981.
The matching figures for chain 1 Y102Q Y103A: 8.13 µM and 0.994.
The matching figures for chain 1 Y102Q Y103T: not below 10 µM and 1.05.
With chain 1 Y102Q Y103E, the Kd with fluorescein is not below 10 µM. Besides, in data set [1], the yeast surface expression turned out to be 0.977.
As to chain 1 Y102H Y107K, the Kd with fluorescein is not below 10 µM. The yeast surface expression in data set [1] came out at 1.05.
The matching figures for chain 1 Y102V Y107F: 0.00226 µM and 0.877.
As for chain 1 Y102V Y107D, the Kd with fluorescein is not below 10 µM. In data set [1], the yeast surface expression worked out at 0.452.
The matching figures for chain 1 Y103I D106W: not below 10 µM and 0.188.
For chain 1 Y103I D106L the same measures were not below 10 µM and 0.354.
For chain 1 Y103I D106A the same measures were not below 10 µM and 0.489.
With chain 1 Y103I D106Q, the Kd with fluorescein is not below 10 µM. In addition, the yeast surface expression in data set [1] turned out to be 0.516.
For chain 1 Y103F, in the data set with fluorescein, the Kd worked out at 0.000763 µM. Besides, the yeast surface expression in data set [1] came out at 1.06.
The matching figures for chain 1 Y103D: 0.0445 µM and 1.21.
For chain 1 Y103H the same measures were 0.0132 µM and 1.1.
For chain 1 Y103G the same measures were 0.0171 µM and 1.14.
With chain 1 Y103K, the Kd with fluorescein is 0.00301 µM. The yeast surface expression in data set [1] came out at 1.04.
